± gives the uncertainty stated by the source.
assay: amyloid nucleation score (Sup35N fusion, yeast selection) (log enrichment); library NNK3; higher = more nucleation; inactive = no reads after selection
Outline: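 The nucleation score, computed with DiMSum, is the log enrichment of output over input reads, centred on the mode score of non-aggregating sequences. Sequences with under 100 input reads were dropped. Reads were generated by Illumina sequencing of plasmid inserts from psi-negative yeast with Sup35N fused to peptides of 20 random codons, induced with 100 μM copper sulfate for 24 hours and grown 7 days at 30°C on medium lacking adenine and uracil.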

Row | Substance | amyloid nucleation score
1 | SKGLCPVWIVLYKACHSMIF | inactive
2 | SKLFVSVSTTIYFEEPSPA | inactive
3 | SKLYYHNQLCFILMHTA | inactive
4 | SKNATIQAMFERLVVVIS | inactive
5 | SKPLFMTNNVTMGTIWPHMG | inactive
6 | SKTFNDPFLLNHLNTFIKPR | -0.259 ± 0.93
7 | SKTMALMYLSFQPHYLYTLC | inactive
8 | SKTPLCMNYFL | inactive
9 | SKVMVHVIWEIVILFMKSKI | inactive
10 | SKWAYIAFGVFVLLFALFNK | -0.161 ± 0.27
11 | SLALFFGIHPNLCFTDTSST | 0.559 ± 0.2
12 | SLCDSVGSKSVF | inactive
13 | SLCLVSLLCFSFRCNDGKWR | 1.38 ± 0.084
14 | SLDIKPSMRCGRRCVRGRST | inactive
15 | SLDWCIRVITGGLRSVVRA | inactive
16 | SLFGVNGMSAPGRRDV | 0.589 ± 0.31
17 | SLFRFVDECCMNDFRLRLSC | inactive
18 | SLFSEMSVYMQDYFWVT | inactive
19 | SLFSGVYSFYY | inactive
20 | SLGSMAAVLSPSTAERPANL | inactive
21 | SLGYHLYRHARVCYRMCDIW | inactive
22 | SLHVSTAFVFDIVLSNYLPV | inactive
23 | SLIDRIIVKPKVWTGGKNYP | inactive

Row | Substance | amyloid nucleation score
24 | SLIIDKGPDVYCSWTVERIT | inactive
25 | SLILENLFVSFLTSKIILGF | inactive
26 | SLILERFNRHCVWGVSVKKH | inactive
27 | SLIYTKYLLMYFIILFLDGG | inactive
28 | SLKCIRSVLNPWAGAALYPS | inactive
29 | SLLFRSLIWSTFDPCSELGP | inactive
30 | SLLFTGHLCLYHTLVCCVFI | 1.28 ± 0.11
31 | SLLRFSLGSCWTFSPKGNYL | 1.87 ± 0.085
32 | SLLWSLSTYNVRIIHMM | inactive
33 | SLMDVN | inactive
34 | SLMLGYETFFMPCGQDMAKW | inactive
35 | SLMYKCLINSILY | 1.97 ± 0.051
36 | SLNNYFYSTNYETSFTLD | inactive
37 | SLRFCWILGENQSGTCSIKR | 1.16 ± 0.15
38 | SLSIMYIFTWDGPYIECTFY | 2.71 ± 0.069
39 | SLTEQNL | inactive
40 | SLTRQLEPADNTDPRCVKSV | inactive
41 | SLVIAQARANRNILLLTVAR | inactive
42 | SLWIYTMSYCLSWNYDCFG | 0.669 ± 0.17
43 | SLYRDLHFYSVLGF | inactive
44 | SLYVHRSIANGF | inactive
45 | SMASGRSALIKVV | inactive
46 | SMCCCNILDLNRN | 3.11 ± 0.057

Row | Substance | amyloid nucleation score
47 | SMCGYWRHI | inactive
48 | SMFSLWNS | inactive
49 | SMHARGDL | inactive
50 | SMLGHKIN | inactive
51 | SMQVQMTWLCDRSSLGQRNL | 1.61 ± 0.074
52 | SMRSRCNFFTVCSAWLSFWE | inactive
53 | SMWYLVLN | inactive
54 | SNALYCPWHWLIHQVV | inactive
55 | SNCRNQFRERVLIAGVLWVV | inactive
56 | SNESLWVSLIICFVTHWFQI | inactive
57 | SNFLLSSLIHLVPMMSL | inactive
58 | SNGLGLSLGNESANKEA | inactive
59 | SNICKLFCCTESIKSQTRLW | 2.61 ± 0.082
60 | SNIRVKFHTPSIGMRCLRTR | inactive
61 | SNLFFSDWTLCCRCIVLVFK | 1.6 ± 0.097
62 | SNMVPLVNSIPRKGVVKG | inactive
63 | SNPGAMSMCEYGGLFSRWLY | -0.516 ± 0.96
64 | SNPGSALDIMGTNQIYPSQH | inactive
65 | SNPHIILID | inactive
66 | SNSVHISLYIGSPSFA | 2.56 ± 0.086
67 | SNVVSTS | inactive
68 | SNVVYMKYRMAVLVTLGICG | inactive
69 | SNYICTYIQKFSIVYCIPSH | 1.96 ± 0.08

Row | Substance | amyloid nucleation score
70 | SPFCFSCIHACWGNEKIRWV | inactive
71 | SPFLCLLLDNEGKVLKVSYK | inactive
72 | SPGGLGFSVNLHCSTYFRPS | 1.24 ± 0.14
73 | SPLRRCMCSFDDAKWWMCGE | 0.803 ± 0.25
74 | SPWLSAHRSNTGVRTLSLEV | inactive
75 | SPYTVQ | inactive
76 | SQFLLGSQ | inactive
77 | SQGQY | -0.672 ± 1.4
78 | SQSFYLFLGQRSRTY | 1.33 ± 0.11
79 | SQSNGFGFFYMMSLVSWVDV | inactive
80 | SRCFLKKYCFLMTSILVRGI | inactive
81 | SRCIFIIVIVSGSYGFSVSN | 1.14 ± 0.13
82 | SREDCGGI | inactive
83 | SRFLSIRELRFWYSMNRWGI | inactive
84 | SRGCRTTYRQEWECIQCLKW | inactive
85 | SRIFSGISPDVTDPS | inactive
86 | SRILRLRVSSSHVERYFKLF | inactive
87 | SRKALVYGSVKRLSIMSAWV | -0.626 ± 0.96
88 | SRMPCRFM | inactive
89 | SRMSGLWD | inactive
90 | SRNMLH | inactive
91 | SRNVLYLVIKIYFEDFNPLS | inactive
92 | SRPILLLSFCFRCAIC | inactive

Row | Substance | amyloid nucleation score
93 | SRRFYLYYFCWYSVVMFIHG | inactive
94 | SRRNTFAVGNFNSVLLN | inactive
95 | SRRSCYVIAYELV | inactive
96 | SRRVRAYIRVFGLCKGFAEC | inactive
97 | SRSAY | inactive
98 | SRVSPMFKIRIWNWIPAWAT | inactive
99 | SRVWTISWLNDGVGGRTQAE | inactive
100 | SRVYAKGRKNTSQFCSGGYS | inactive
101 | SRWPGHNYISQYGGYLLIFY | 2.02 ± 0.071
102 | SRYLLADSFFRASAVWDVSE | inactive
103 | SSACISCYVSMLWYDVLFKV | 0.345 ± 0.23
104 | SSAIYVMRLPQCMAECSRPR | inactive
105 | SSCKDPRRKE | inactive
106 | SSCPYIFYQLST | inactive
107 | SSDDFSWTIRMRRSEFTSHG | inactive
108 | SSDQRASPGWGFLFHKCAQV | inactive
109 | SSEPMHLEASIPVFAKE | inactive
110 | SSERGMLVDNVLSHSWMFCI | 1.35 ± 0.13
111 | SSEVYQALPPMS | inactive
112 | SSFEFVE | 0.698 ± 0.22
113 | SSFPYFTTYVHHVG | inactive
114 | SSKFRRLLGVIMMADLMQVY | inactive
115 | SSLETLSSLFLIRLMELVSR | inactive

Row | Substance | amyloid nucleation score
116 | SSLLSEWNGGKSYNSVVDEV | inactive
117 | SSMGVVSVRAN | inactive
118 | SSMSSTSALLYMHDNFWCAI | inactive
119 | SSNDVVTSYRILCKVSTKAT | -0.622 ± 0.66
120 | SSNESGLSFGSEFHMLGWHG | 0.075 ± 0.35
121 | SSNLFVHHTSFTWASSTPHR | inactive
122 | SSNLNRFSITVFVVERHHQF | inactive
123 | SSNYNLKTLNSISRFFDLES | inactive
124 | SSSCVSSGCDVWA | inactive
125 | SSSDCGNMNTTPRWAGGIGA | inactive
126 | SSSGY | -0.007 ± 1
127 | SSSPVMYCMFLRSRSGRDYK | inactive
128 | SSSTKGFVNVDKSLASW | inactive
129 | SSTGSLIPQPAFSYFCTATP | inactive
130 | SSTYSGCWLVLSIKRFVLIE | inactive
131 | SSVDSSFANCCVISKRNHML | inactive
132 | SSVGMARAYL | -1.17 ± 1.9
133 | SSVKRYLAVRWCSESMHTRW | inactive
134 | SSYGSPIIVLNTHSTVGIRI | 1.59 ± 0.11
135 | SSYLDTNWRMP | inactive
136 | SSYLPHHISSQRLSSQEPAD | inactive
137 | STCRWLFNNA | 0.257 ± 0.16
138 | STGWSMLVFRTRCYLFSFSG | inactive

Row | Substance | amyloid nucleation score
139 | STGYYVMDVYLTVAYYVDSN | inactive
140 | STITYHLDIEVRKCWVFYMY | inactive
141 | STLILNRLYCFNLISLASLS | 0.56 ± 0.2
142 | STLVFPLKFFELCSKD | inactive
143 | STMDSIYQFL | inactive
144 | STQGCLCRYPG | -0.333 ± 0.88
145 | STQNGYRQNEFSRSRMMAPD | inactive
146 | STRRILCIP | -0.381 ± 0.8
147 | STSRGNRFACPCFDYCWFRE | -0.598 ± 1.1
148 | STVSYGVGHQNM | inactive
149 | STWGEFVH | inactive
150 | STWTG | inactive
151 | STYRHLDRSL | inactive
152 | STYVCDGIDG | inactive
153 | SVDDSFLYLYRYKGFCPNF | inactive
154 | SVDVMTGLPTWSYLCDDETR | 2.2 ± 0.06
155 | SVDWYNFECSIASPF | inactive
156 | SVEMIPDSGLSVRMGFEGLV | inactive
157 | SVGHSFERKWSGCHWEISNL | inactive
158 | SVGRYA | -0.306 ± 0.41
159 | SVGVFVYLKLINLIVLGGRG | inactive

— the supplement of paper PMC12042874
